This assay concerns the target T1, human serum albumin (human, UniProt P02768 25-609).
T1 construct: Reagent protein; also called HSA
Kind of assay: fluorescence anisotropy, 500 nM peptide with varied protein concentrations in PBS pH 7.4. Here is the method: FIGS. 16A-16B show further evaluation of the protein-enhanced bacterial staining by KAM5. (A) Flow cytometry comparison of HSA and BSA in enhancing KAM5 binding to S. aureus. (B) Assessing protein binding of KAM5 using fluorescence anisotropy, for which various concentrations of BSA or HSA were delivered to a 96-well plate (Corning 3603) in PBS (pH 7.4). Peptide was added at a final concentration of 500 nM and incubated for 1 hour. Anisotropy values were measured (Ex: 495 nm, Em: 532 nm) and plotted as an average of three trials with standard deviations. Fluorescein was used as a negative control. The results clearly show binding of KAM5 to these serum proteins.
The cell staining ability of KAM5 was also evaluated via fluorescence microscopy with a TAMRA labeled peptide. […] On the contrary, the BSA addition elicited stronger fluorescence staining of the bacteria, consistent with the flow cytometry results (FIG. 2D). […] To better understand this phenomenon, KAM5 was measured binding to these serum proteins via a fluorescence anisotropy experiment (FIGS. 16A-16B). KAM5 did show binding to both BSA and HAS at high protein concentrations, which is perhaps not surprising given these proteins display a large number of surface lysine residues.
(In general: Fluorescence polarisation rises when a labelled molecule tumbles more slowly, as on binding a larger partner.)

Non-standard residues stand in square brackets, D forms with d. No end group written: not given here. *: point of attachment. APBA‑IA = cysteine S-alkylated with APBA-IA: S-[2-oxo-2-({3-[4-acetyl-3-boronophenoxy]propyl}amino)ethyl]-L-cysteine (Cm), CC(=O)c1ccc(OCCCNC(=O)C*)cc1B(O)O; FAM = 5(6)-carboxyfluorescein, amide on Dap side-chain amine; Dap = NC[C@H](N)C(=O)O

T1 sequence (P02768 25-609 limits assumed): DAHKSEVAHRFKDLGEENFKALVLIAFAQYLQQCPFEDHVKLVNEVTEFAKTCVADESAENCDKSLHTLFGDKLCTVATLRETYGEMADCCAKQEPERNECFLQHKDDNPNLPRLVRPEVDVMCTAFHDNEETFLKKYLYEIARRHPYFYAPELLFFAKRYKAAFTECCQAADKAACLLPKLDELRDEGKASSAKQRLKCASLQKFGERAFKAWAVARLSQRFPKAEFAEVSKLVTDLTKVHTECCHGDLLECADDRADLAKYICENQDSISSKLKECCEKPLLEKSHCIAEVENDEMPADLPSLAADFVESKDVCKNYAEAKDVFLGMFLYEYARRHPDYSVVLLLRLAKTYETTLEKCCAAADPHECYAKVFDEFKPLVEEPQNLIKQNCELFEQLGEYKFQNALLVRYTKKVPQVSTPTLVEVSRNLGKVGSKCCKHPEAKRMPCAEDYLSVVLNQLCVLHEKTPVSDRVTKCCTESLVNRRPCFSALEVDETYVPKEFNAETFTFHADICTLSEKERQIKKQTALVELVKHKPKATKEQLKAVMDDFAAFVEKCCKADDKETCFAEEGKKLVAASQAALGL

Regarding AC(APBA‑IA)VSPRSHEC(APBA‑IA)GGG[Dap](FAM)-NH2 [KAM5 (fluorescein/FAM labeled, APBA-IA modified): ACmVSPRSHECmGGGDap*], the binding result is listed as “binds”.

For the origin of these results see patent US20210198657A1 (TRUSTEES OF BOSTON COLLEGE, published 2021).
